{"source": "patent US20210238260", "target": "Factor X (FX), P00742", "sequence (P00742 whole entry, looked up)": "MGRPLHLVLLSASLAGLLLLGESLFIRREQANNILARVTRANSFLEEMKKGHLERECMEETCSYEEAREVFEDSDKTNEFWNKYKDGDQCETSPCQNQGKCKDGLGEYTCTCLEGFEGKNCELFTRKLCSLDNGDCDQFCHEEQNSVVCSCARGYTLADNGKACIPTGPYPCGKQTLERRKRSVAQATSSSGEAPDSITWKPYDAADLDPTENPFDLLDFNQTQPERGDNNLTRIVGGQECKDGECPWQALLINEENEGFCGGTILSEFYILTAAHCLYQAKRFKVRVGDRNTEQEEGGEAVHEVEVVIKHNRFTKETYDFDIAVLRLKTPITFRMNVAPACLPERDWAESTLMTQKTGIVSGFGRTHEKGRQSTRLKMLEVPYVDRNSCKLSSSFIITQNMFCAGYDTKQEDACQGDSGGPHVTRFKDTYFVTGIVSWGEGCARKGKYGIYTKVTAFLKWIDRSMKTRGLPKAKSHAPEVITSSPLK"}
{"protein": "FIXa Y155F/K247N/N249S/R318Y/R338E/R403E/E410N (protein) chain 1: YNSGKLEEFVQGNLERECMEEKCSFEEAREVFENTERTTEFWKQYVDGDQCESNPCLNGGSCKDDINSYECWCPFGFEGKNCELDVTCNIKNGRCEQFCKNSADNKVVCSCTEGYRLAENQKSCEPAVPFPCGRVSVSQTSKLTR chain 2: VVGGEDAKPGQFPWQVVLNGKVDAFCGGSIVNEKWIVTAAHCVETGVKITVVAGEHNIEETEHTEQNRSVIRIIPHHNYNAAINKYNHDIALLELDEPLVLNSYVTPICIADKEYTNIFLKFGSGYVSGWGRVFHKGYSALVLQYLRVPLVDRATCLESTKFTIYNNMFCAGFHEGGRDSCQGDSGGPHVTEVEGTSFLTGIISWGEECAMKGKYGIYTKVSEYVNWIKNKTKLT", "values": [{"measurement": "KM (FX activation by FIXa in the Xase complex with FVIIIa, PC/PS vesicles and Ca2+)", "value": 0.0363, "unit": "µM"}]}
{"protein": "FIXa A103N/N105S/K247N/N249S/R318Y/R338E/R403E/E410N (protein) chain 1: YNSGKLEEFVQGNLERECMEEKCSFEEAREVFENTERTTEFWKQYVDGDQCESNPCLNGGSCKDDINSYECWCPFGFEGKNCELDVTCNIKNGRCEQFCKNSNDSKVVCSCTEGYRLAENQKSCEPAVPFPCGRVSVSQTSKLTR chain 2: VVGGEDAKPGQFPWQVVLNGKVDAFCGGSIVNEKWIVTAAHCVETGVKITVVAGEHNIEETEHTEQNRSVIRIIPHHNYNAAINKYNHDIALLELDEPLVLNSYVTPICIADKEYTNIFLKFGSGYVSGWGRVFHKGYSALVLQYLRVPLVDRATCLESTKFTIYNNMFCAGFHEGGRDSCQGDSGGPHVTEVEGTSFLTGIISWGEECAMKGKYGIYTKVSEYVNWIKNKTKLT", "values": [{"measurement": "KM (FX activation by FIXa in the Xase complex with FVIIIa, PC/PS vesicles and Ca2+)", "value": 0.028, "unit": "µM"}]}
{"protein": "FIXa D104N/K106S/K247N/N249S/R318Y/R338E/R403E/E410N (protein) chain 1: YNSGKLEEFVQGNLERECMEEKCSFEEAREVFENTERTTEFWKQYVDGDQCESNPCLNGGSCKDDINSYECWCPFGFEGKNCELDVTCNIKNGRCEQFCKNSANNSVVCSCTEGYRLAENQKSCEPAVPFPCGRVSVSQTSKLTR chain 2: VVGGEDAKPGQFPWQVVLNGKVDAFCGGSIVNEKWIVTAAHCVETGVKITVVAGEHNIEETEHTEQNRSVIRIIPHHNYNAAINKYNHDIALLELDEPLVLNSYVTPICIADKEYTNIFLKFGSGYVSGWGRVFHKGYSALVLQYLRVPLVDRATCLESTKFTIYNNMFCAGFHEGGRDSCQGDSGGPHVTEVEGTSFLTGIISWGEECAMKGKYGIYTKVSEYVNWIKNKTKLT", "values": [{"measurement": "KM (FX activation by FIXa in the Xase complex with FVIIIa, PC/PS vesicles and Ca2+)", "value": 0.059, "unit": "µM"}]}
{"protein": "FIXa D104N/K106S/Y155F/K247N/N249S/R318Y/R338E/R403E/E410N (protein) chain 1: YNSGKLEEFVQGNLERECMEEKCSFEEAREVFENTERTTEFWKQYVDGDQCESNPCLNGGSCKDDINSYECWCPFGFEGKNCELDVTCNIKNGRCEQFCKNSANNSVVCSCTEGYRLAENQKSCEPAVPFPCGRVSVSQTSKLTR chain 2: VVGGEDAKPGQFPWQVVLNGKVDAFCGGSIVNEKWIVTAAHCVETGVKITVVAGEHNIEETEHTEQNRSVIRIIPHHNYNAAINKYNHDIALLELDEPLVLNSYVTPICIADKEYTNIFLKFGSGYVSGWGRVFHKGYSALVLQYLRVPLVDRATCLESTKFTIYNNMFCAGFHEGGRDSCQGDSGGPHVTEVEGTSFLTGIISWGEECAMKGKYGIYTKVSEYVNWIKNKTKLT", "values": [{"measurement": "KM (FX activation by FIXa in the Xase complex with FVIIIa, PC/PS vesicles and Ca2+)", "value": 0.0518, "unit": "µM"}]}
{"protein": "FIXa K247N/N249S/R318Y/R338E/E410N (protein) chain 1: YNSGKLEEFVQGNLERECMEEKCSFEEAREVFENTERTTEFWKQYVDGDQCESNPCLNGGSCKDDINSYECWCPFGFEGKNCELDVTCNIKNGRCEQFCKNSADNKVVCSCTEGYRLAENQKSCEPAVPFPCGRVSVSQTSKLTR chain 2: VVGGEDAKPGQFPWQVVLNGKVDAFCGGSIVNEKWIVTAAHCVETGVKITVVAGEHNIEETEHTEQNRSVIRIIPHHNYNAAINKYNHDIALLELDEPLVLNSYVTPICIADKEYTNIFLKFGSGYVSGWGRVFHKGYSALVLQYLRVPLVDRATCLESTKFTIYNNMFCAGFHEGGRDSCQGDSGGPHVTEVEGTSFLTGIISWGEECAMKGKYGIYTKVSRYVNWIKNKTKLT", "values": [{"measurement": "KM (FX activation by FIXa in the Xase complex with FVIIIa, PC/PS vesicles and Ca2+)", "value": 0.0166, "unit": "µM"}]}
{"protein": "FIXa Y155F/K247N/N249S/R318Y/R338E/E410N (protein) chain 1: YNSGKLEEFVQGNLERECMEEKCSFEEAREVFENTERTTEFWKQYVDGDQCESNPCLNGGSCKDDINSYECWCPFGFEGKNCELDVTCNIKNGRCEQFCKNSADNKVVCSCTEGYRLAENQKSCEPAVPFPCGRVSVSQTSKLTR chain 2: VVGGEDAKPGQFPWQVVLNGKVDAFCGGSIVNEKWIVTAAHCVETGVKITVVAGEHNIEETEHTEQNRSVIRIIPHHNYNAAINKYNHDIALLELDEPLVLNSYVTPICIADKEYTNIFLKFGSGYVSGWGRVFHKGYSALVLQYLRVPLVDRATCLESTKFTIYNNMFCAGFHEGGRDSCQGDSGGPHVTEVEGTSFLTGIISWGEECAMKGKYGIYTKVSRYVNWIKNKTKLT", "values": [{"measurement": "KM (FX activation by FIXa in the Xase complex with FVIIIa, PC/PS vesicles and Ca2+)", "value": 0.0147, "unit": "µM"}]}
{"protein": "FIXa R318Y/R338E/R403E/E410S (protein) chain 1: YNSGKLEEFVQGNLERECMEEKCSFEEAREVFENTERTTEFWKQYVDGDQCESNPCLNGGSCKDDINSYECWCPFGFEGKNCELDVTCNIKNGRCEQFCKNSADNKVVCSCTEGYRLAENQKSCEPAVPFPCGRVSVSQTSKLTR chain 2: VVGGEDAKPGQFPWQVVLNGKVDAFCGGSIVNEKWIVTAAHCVETGVKITVVAGEHNIEETEHTEQKRNVIRIIPHHNYNAAINKYNHDIALLELDEPLVLNSYVTPICIADKEYTNIFLKFGSGYVSGWGRVFHKGYSALVLQYLRVPLVDRATCLESTKFTIYNNMFCAGFHEGGRDSCQGDSGGPHVTEVEGTSFLTGIISWGEECAMKGKYGIYTKVSEYVNWIKSKTKLT", "values": [{"measurement": "KM (FX activation by FIXa in the Xase complex with FVIIIa, PC/PS vesicles and Ca2+)", "value": 0.0364, "unit": "µM"}]}
{"protein": "FIXa R318Y/R338E/E410S (protein) chain 1: YNSGKLEEFVQGNLERECMEEKCSFEEAREVFENTERTTEFWKQYVDGDQCESNPCLNGGSCKDDINSYECWCPFGFEGKNCELDVTCNIKNGRCEQFCKNSADNKVVCSCTEGYRLAENQKSCEPAVPFPCGRVSVSQTSKLTR chain 2: VVGGEDAKPGQFPWQVVLNGKVDAFCGGSIVNEKWIVTAAHCVETGVKITVVAGEHNIEETEHTEQKRNVIRIIPHHNYNAAINKYNHDIALLELDEPLVLNSYVTPICIADKEYTNIFLKFGSGYVSGWGRVFHKGYSALVLQYLRVPLVDRATCLESTKFTIYNNMFCAGFHEGGRDSCQGDSGGPHVTEVEGTSFLTGIISWGEECAMKGKYGIYTKVSRYVNWIKSKTKLT", "values": [{"measurement": "KM (FX activation by FIXa in the Xase complex with FVIIIa, PC/PS vesicles and Ca2+)", "value": 0.0164, "unit": "µM"}]}
{"protein": "FIXa K228N/K247N/N249S (protein) chain 1: YNSGKLEEFVQGNLERECMEEKCSFEEAREVFENTERTTEFWKQYVDGDQCESNPCLNGGSCKDDINSYECWCPFGFEGKNCELDVTCNIKNGRCEQFCKNSADNKVVCSCTEGYRLAENQKSCEPAVPFPCGRVSVSQTSKLTR chain 2: VVGGEDAKPGQFPWQVVLNGKVDAFCGGSIVNEKWIVTAAHCVETGVNITVVAGEHNIEETEHTEQNRSVIRIIPHHNYNAAINKYNHDIALLELDEPLVLNSYVTPICIADKEYTNIFLKFGSGYVSGWGRVFHKGRSALVLQYLRVPLVDRATCLRSTKFTIYNNMFCAGFHEGGRDSCQGDSGGPHVTEVEGTSFLTGIISWGEECAMKGKYGIYTKVSRYVNWIKEKTKLT", "values": [{"measurement": "KM (FX activation by FIXa in the Xase complex with FVIIIa, PC/PS vesicles and Ca2+)", "value": 0.0945, "unit": "µM"}]}
{"protein": "FIXa D104N/K106S/Y155F/K228N/K247N/N249S (protein) chain 1: YNSGKLEEFVQGNLERECMEEKCSFEEAREVFENTERTTEFWKQYVDGDQCESNPCLNGGSCKDDINSYECWCPFGFEGKNCELDVTCNIKNGRCEQFCKNSANNSVVCSCTEGYRLAENQKSCEPAVPFPCGRVSVSQTSKLTR chain 2: VVGGEDAKPGQFPWQVVLNGKVDAFCGGSIVNEKWIVTAAHCVETGVNITVVAGEHNIEETEHTEQNRSVIRIIPHHNYNAAINKYNHDIALLELDEPLVLNSYVTPICIADKEYTNIFLKFGSGYVSGWGRVFHKGRSALVLQYLRVPLVDRATCLRSTKFTIYNNMFCAGFHEGGRDSCQGDSGGPHVTEVEGTSFLTGIISWGEECAMKGKYGIYTKVSRYVNWIKEKTKLT", "values": [{"measurement": "KM (FX activation by FIXa in the Xase complex with FVIIIa, PC/PS vesicles and Ca2+)", "value": 0.0753, "unit": "µM"}]}
{"protein": "FIXa D104N/K106S/K228N/K247N/N249S (protein) chain 1: YNSGKLEEFVQGNLERECMEEKCSFEEAREVFENTERTTEFWKQYVDGDQCESNPCLNGGSCKDDINSYECWCPFGFEGKNCELDVTCNIKNGRCEQFCKNSANNSVVCSCTEGYRLAENQKSCEPAVPFPCGRVSVSQTSKLTR chain 2: VVGGEDAKPGQFPWQVVLNGKVDAFCGGSIVNEKWIVTAAHCVETGVNITVVAGEHNIEETEHTEQNRSVIRIIPHHNYNAAINKYNHDIALLELDEPLVLNSYVTPICIADKEYTNIFLKFGSGYVSGWGRVFHKGRSALVLQYLRVPLVDRATCLRSTKFTIYNNMFCAGFHEGGRDSCQGDSGGPHVTEVEGTSFLTGIISWGEECAMKGKYGIYTKVSRYVNWIKEKTKLT", "values": [{"measurement": "KM (FX activation by FIXa in the Xase complex with FVIIIa, PC/PS vesicles and Ca2+)", "value": 0.0771, "unit": "µM"}]}
{"protein": "FIXa variant K293A/R338A/R403A (protein) chain 1: YNSGKLEEFVQGNLERECMEEKCSFEEAREVFENTERTTEFWKQYVDGDQCESNPCLNGGSCKDDINSYECWCPFGFEGKNCELDVTCNIKNGRCEQFCKNSADNKVVCSCTEGYRLAENQKSCEPAVPFPCGRVSVSQTSKLTR chain 2: VVGGEDAKPGQFPWQVVLNGKVDAFCGGSIVNEKWIVTAAHCVETGVKITVVAGEHNIEETEHTEQKRNVIRIIPHHNYNAAINKYNHDIALLELDEPLVLNSYVTPICIADAEYTNIFLKFGSGYVSGWGRVFHKGRSALVLQYLRVPLVDRATCLASTKFTIYNNMFCAGFHEGGRDSCQGDSGGPHVTEVEGTSFLTGIISWGEECAMKGKYGIYTKVSAYVNWIKEKTKLT", "values": [{"measurement": "% of WT kcat/KM", "value": 53, "unit": "%"}, {"measurement": "kcat/KM", "value": "2.5e+07", "unit": "M⁻¹ s⁻¹"}]}
{"protein": "FIXa variant K293E/R338E/R403E (protein) chain 1: YNSGKLEEFVQGNLERECMEEKCSFEEAREVFENTERTTEFWKQYVDGDQCESNPCLNGGSCKDDINSYECWCPFGFEGKNCELDVTCNIKNGRCEQFCKNSADNKVVCSCTEGYRLAENQKSCEPAVPFPCGRVSVSQTSKLTR chain 2: VVGGEDAKPGQFPWQVVLNGKVDAFCGGSIVNEKWIVTAAHCVETGVKITVVAGEHNIEETEHTEQKRNVIRIIPHHNYNAAINKYNHDIALLELDEPLVLNSYVTPICIADEEYTNIFLKFGSGYVSGWGRVFHKGRSALVLQYLRVPLVDRATCLESTKFTIYNNMFCAGFHEGGRDSCQGDSGGPHVTEVEGTSFLTGIISWGEECAMKGKYGIYTKVSEYVNWIKEKTKLT", "values": [{"measurement": "% of WT kcat/KM", "value": 36, "unit": "%"}, {"measurement": "kcat/KM", "value": "1.7e+07", "unit": "M⁻¹ s⁻¹"}]}
{"protein": "FIXa variant R338E/R403E/E410N (protein) chain 1: YNSGKLEEFVQGNLERECMEEKCSFEEAREVFENTERTTEFWKQYVDGDQCESNPCLNGGSCKDDINSYECWCPFGFEGKNCELDVTCNIKNGRCEQFCKNSADNKVVCSCTEGYRLAENQKSCEPAVPFPCGRVSVSQTSKLTR chain 2: VVGGEDAKPGQFPWQVVLNGKVDAFCGGSIVNEKWIVTAAHCVETGVKITVVAGEHNIEETEHTEQKRNVIRIIPHHNYNAAINKYNHDIALLELDEPLVLNSYVTPICIADKEYTNIFLKFGSGYVSGWGRVFHKGRSALVLQYLRVPLVDRATCLESTKFTIYNNMFCAGFHEGGRDSCQGDSGGPHVTEVEGTSFLTGIISWGEECAMKGKYGIYTKVSEYVNWIKNKTKLT", "values": [{"measurement": "% of WT kcat/KM", "value": 411, "unit": "%"}, {"measurement": "kcat/KM", "value": "1.9e+08", "unit": "M⁻¹ s⁻¹"}]}
